Source: patent CN111995682A (BIOSION BIO TECH NANJING CO LTD, dated 2020)

What was measured:
重组人SIRPα带his标签的蛋白 [1] = biological target: T1, 重组人SIRPα带his标签的蛋白 (human, UniProt P78324 31-373); test: SPR (Biacore T200), antibody captured on anti-mouse IgG CM5 chip, human SIRPα-his as analyte
T1 construct: extracellular domain; also called 人SIRPα-his抗原; SRPA-ECD-His; not shown: C-terminal His tag from vector pCMV-C-His

人SIRPβ-ECD-His抗原 = biological target: T2, 人SIRPβ-ECD-His抗原 (human, UniProt O00241 30-371); test: ELISA summary (Table 3, methods of Example 2)
T2 construct: It ends in a His tag; also called SIRPβ抗原

重组人SIRPα带his标签的蛋白 [2] = biological target: T1, 重组人SIRPα带his标签的蛋白; test: SPR (Biacore T200), ratio of KD against Benchmark
重组人SIRPα带his标签的蛋白 [3] = biological target: T1, 重组人SIRPα带his标签的蛋白; test: SPR (Biacore T200), human SIRPα-his as analyte

T1 sequence (P78324 31-373): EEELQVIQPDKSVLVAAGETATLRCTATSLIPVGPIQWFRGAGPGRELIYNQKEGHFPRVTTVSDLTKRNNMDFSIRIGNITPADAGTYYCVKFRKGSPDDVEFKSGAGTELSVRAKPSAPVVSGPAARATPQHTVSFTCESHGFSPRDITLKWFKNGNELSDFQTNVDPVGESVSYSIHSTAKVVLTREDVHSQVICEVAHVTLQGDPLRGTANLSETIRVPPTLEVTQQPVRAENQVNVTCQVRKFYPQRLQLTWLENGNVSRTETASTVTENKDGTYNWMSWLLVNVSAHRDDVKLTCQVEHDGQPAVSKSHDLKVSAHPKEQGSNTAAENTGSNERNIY
T2 sequence (O00241 other isoform, or with tags, fused parts or gaps): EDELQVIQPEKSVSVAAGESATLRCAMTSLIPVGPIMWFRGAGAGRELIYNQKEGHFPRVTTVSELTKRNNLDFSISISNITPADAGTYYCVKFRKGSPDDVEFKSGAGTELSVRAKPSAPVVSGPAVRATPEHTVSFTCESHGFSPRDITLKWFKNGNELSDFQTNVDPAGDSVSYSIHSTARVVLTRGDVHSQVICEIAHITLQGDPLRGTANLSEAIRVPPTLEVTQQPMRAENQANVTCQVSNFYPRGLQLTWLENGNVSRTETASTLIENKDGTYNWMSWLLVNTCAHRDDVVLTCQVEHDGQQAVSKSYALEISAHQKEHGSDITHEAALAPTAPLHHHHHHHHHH

B1: 抗人SIRPα单克隆抗体 A2D9D1B1 (antibody, mouse IgG1, kappa, V domains shown)
VH: QVQLKESGPGLVAPSQSLSITCTVSGFSLSSYAIHWVRQPPGKGLEWLGVIWTGGSTIYNSALMSRLNISKDNSKSQVFLKMNSLQTDDTAMYYCARGNYLRYWGQGTLVTVSA
VL: NIVLTQSPASLAVSLGQRATISCRASESVDSYGYSYMHWNQQKPGQPPKLLIYLASDLESGVPARFSGSGSRTDFTLTIDPVEADDAATYYCQQNNDDPWTFGGGTKLEIKR
notes: also called 鼠抗A2D9D1B1; A2D9D1B1单克隆抗体
Kd (重组人SIRPα带his标签的蛋白 [1]): 1.25 nM | binding result (人SIRPβ-ECD-His抗原): binds | fold stronger affinity than Benchmark (重组人SIRPα带his标签的蛋白 [2]): ~2.4 fold

B2: Benchmark (KWAR23抗体) (antibody, human IgG4 S228P, kappa, V domains shown)
VH: EVQLQQSGAELVKPGASVKLSCTASGFNIKDYYIHWVQQRTEQGLEWIGRIDPEDGETKYAPKFQDKATITADTSSNTAYLHLSSLTSEDTAVYYCARWGAYWGQGTLVTVSA
VL: QIVLTQSPAIMSASPGEKVTLTCSASSSVSSSYLYWYQQKPGSSPKLWIYSTSNLASGVPARFSGSGSGTSYSLTISSMEAEDAASYFCHQWSSYPRTFGAGTKLELKR
notes: Made in-house; full heavy and light chains are printed; The printed constant regions look human, while the ELISA and Biacore protocols describe anti-mouse capture and detection reagents; also called BM; 参照抗体
Kd (重组人SIRPα带his标签的蛋白 [3]): 2.94 nM
